Assay: soluble on expression in E. coli; label from the status in PepcDB or PDB records

Sequence | soluble on expression in E. coli
MSLSRNSDLHMHSTASDGGYSPTELMEKCHQANLKFVALTDHDTVNGIEEAKQTAHRLGFILIPGIELSTKASGQSVHMLGYGIDWKNDTLKRRLDRQQDIRKQRLEQILLKLKAAGVPLEQDAVLRYADGGAIGRPHVAKALMDKGYVRSVQEAFEHYLAEGRPCYVKRQEYISVEQAIAWIHQAGGVAIVAHPGYYDLDDQLIGWVREYGLDGIEVYHRDHSREVVAHYEQLCKRMEAETGRRLLRTGGSDFHHESYGRTAAPLGTTRIPDQLTYELLHDLERKKTRAEGHHHHHH | soluble
MLGLVSLCALILILWRVVYRSVTRPLAEQTQALQRLLDGDIDSPFPETAGVRELDTIGRLMDAFRSSVHALNRHREQLAAQVKARTAELQELVIEHRQARAEAEKASQAKSAFLAAMSHEIRTPLYGILGTAQLLADNPALNAQRDDLRAITDSGESLLTILNDILDYSAIEAGGKNVSVSDEPFEPRPLLESTLQLMSGRVKGRPIRLATEIADDVPTALMGDPRRIRQVITNLLSNALRFTDEGHIILRSRTDGEQWLVEVEDSGCGIDPAKLAEIFQPFVQVSGKRGGTGLGLTISSRLAQAMGGELSATSTPEVGSCFCLRLPLRIATAPVPKTVNQAVRLDDLRLLLIEDNPLTQRITVEMLNTSGAQVVAVGNAAQAIEALQNSEPFAAALVDFDLPDIDGITLARQLAQQYPSLVLIGFSAHVIDETLRQRTSSLFRGIIPKPVPREVLGQLLAHYLQLQVNNDQPLDVSQLNEDAHLMGAEKIHEWLILFKQHALPLLDEIDIARASQDNEKIKRAAHQLKSSCSSLGMRSASQQCAQLEQQPLSAPLPHEEITRSVAALEAWLIRKT | not soluble
MLRRSSVVLARFQPYSMAVQTRFKWRHKETDRWRRLMDATCFQVDWLGQTAGPNFAQYSGHWTHVITCAHVITPWDYPNYYPPQGPTRFVSHITLADTMTQIRLVSMQGNAVYKHFTSNQHVFVHSNPRLDLCVLHPEQNLKRSGEMKMMWMQNEGYISRPRLEINETLKVGDYVWVYGMSAHESLFDEEKGPEPLMIPTGVRARVHAVTREHFFLDTTALEDNPDRGRIQMGMCGSVVMRNGKCVGMLTATVHEESDCKELAGTAMCTYSSDVFEFLLEVEKQMKNPVARQSQEETRFEQRRRAEGGVKEHKHWELDESRTARHIPVPVSLWHMEEKWVTEEDYMNSAVFGRSGAFNQETQESALGYDMNTAKTNGDRPGDIDSFMSTTTTGKPVMQGERKDYSPTGVYANVEEFKNKDVWDYNVSSEMRSLFNETVDSKDAESLNMMRKSLENIRAQRAMEKMKETVMNRTEPGFDPLKGYGHYGGSADAGAANFNPEYASAHKGSGDAYSYAQAAQQAAREQPGDHASPASTPPPSPPPPNESVIDRKKRERREAEAKYQEELRRRHGQRAVPFGDEDLSGFWERR | not soluble
MGVVLIDGSTVRSFVDDEEQFKKSVDERFAALDLNKDGVLSRSELRKAFESMRLLESHFGVDVVTPQDELTNLYDSIFEKFDTDQSGSVDLEEFRSEMKKIVLAIADGLGSCPITMVLDDDDDNFLKKAADLEASKLEKASS | soluble
MQFERISTEQKKLSLIQTFLHQNALKLDEQIEYFVVGYNDNEQIVVCGGLAGNIIKCVAIDESLRGSGVALQLITELVDLAYTLKRPHLFIYTKPEYATLFKSCGFYIISDANPYVVLLENSATRLQKQCSLWEKMRVDGNRIGSIVMNANPFTLGHRYLIEQALQQCDHLHLFIVGEDASQFSYTERFEMIQQGIFDLSNITLHSGSDYIISRATFPNYFLKDQLITDESYFEIDLKLFRLHIAQALGITHRFVGTELNCPVTAEYNRQMHYWLMDAEMNAPKINVIEIPRKTASNHIISASTVRKHLAEKNWAQLAEFVPMTTLNYLQKCGRF | soluble
MGSDKIHHHHHHMKKFYDEMHASGDKVREHYAGYERWLAQQPHESMKGHRDEAEMIFRRVGITFAVYGAKDEDGSGTERLIPFDLIPRIIPAQEWREMEKGLRQRVNALNRFIHDVYHDQEIIKAGIVPGEQVFKNAQFRPEMMGVDVPGNVYSQIAGIDIVRAANPDGSGNYYVLEDNLRVPSGVSYMLENRKMMMRLFPELFSSHRVAPVAHYPDLLLDTLRAVAPPGVAEPTVVVMTPGMYNSAYFEHAFLAQQMGVELVEGQDLFVKDNYLYMRTTQGPRRVDVIYRRIDDDFLDPKAFRADSTIGCAGLLSVYRAGNVNLCNAIGTGVADDKSIYPYVPKMIEFYLGEKPILNNVPTYLCRESEDLQYVLAHLGELVVKEVHGAGGYGMLVGPAASKAEIEEFRTQLVANPSNYIAQPTLALSTCPTFVESGIAPRHIDLRPFVLSGKTVQMVPGGLTRVALKEGSLVVNSSQGGGTKDTWMLEA | not soluble
MHGESPIKRRESRKIWVGSVPVGGDAPIAVQSMTNSDTNDVAATVAQINRLEAAGVDIVRISVPDMDAAEAFGRIKQLVKVPLVADIHFDYRIALRVAELGVDCLRINPGNIGREDRVRAVVDAARDRGIPIRIGVNAGSLEKDLQKKYGEPTPEALVESALRHVEHLERLNFKDFKVSVKASDVFMAVAAYRLLAKQIVQPLHLGITEAGGLRSGTVKSAVGLGMLLAEGIGDTIRISLAADPVEEVKVGYDILKSLRLRSRGINFIACPSCSRQNFDVVKTMNELEGRLEDLLVPLDVAVIGCVVNGPGEAKEAHIGLTGGTPNLIYIDGKPAQKLTNDNLVDELERLIREKAAEKTAADASVIVRGLEHHHHHH | not soluble
MSLSNNTINIALIGYGFVGKTFHAPLIRSVPGLNLAFVASRDEEKVKRDLPDVTVIASPEAAVQHPDVDLVVIASPNATHAPLARLALNAGKHVVVDKPFTLDMQEARELIALAEEKQRLLSVFHNRRWDSDYLGIRQVIEQGTLGAVKHFESHFDRFRPEVRVRWREQNVPGSGLWFDLGPHLIDQALQLFGLPQSVQGNIATLRDGAEINDWAHVVLNYPAHKVILHCSMLVAGGSSRFTVHGDKGSVIKARADQQESQLLAGVVPGSADWGQDDDPLVIYDASLQAHAQATPQGDQRQYYMLIRDALKGQIANPVPPVEALAVMAVLEAAVRSAESGMVQTLDLSDDERNTLREGHHHHHH | soluble
MSLSHAETIKLGMSIPLSGSGANWGKGSEWLCAKAAEEIKAAGGVKVQGKVYDFECVGYDNKYNAAEGAKVAQALVSRDGVKYVAGSIGVAPVRALQSLTERRGVLLFTAAWGNSIKGPKFPLTFTQMNSVNEISEPMIAHVKKLHPEIKTVVLLNPNDATGQETEKVAKAAWEKNGVKVLASDWYERGTSEFQPIAAKLNSLKPDLVDLASTPPADAGLVFRELKALGWNGVKVVEVGTGADGLLATGKDAVDGTYLGAAVAVDGLSAHQKALNDGVKKVTGENINSVQIGFYDSVYAIKAAMEKAQSVDPQQVAKVMPDVKFQSFFGEVDFGGKSVYGSDQQMQLPVIITQISGTALKEVGRVQKEGHHHHHH | soluble
MILSVTFSPSEVPLAGAIASISSIKIIAGAACLAFLKISLILFSLSPTHLLNTSGPLTAMKLASLSVATALAKRVLPVPGGPYNKTPLGGVIPSFLNALGYFSGHSTASLSSCFTSSNPPMSSQWTFGTSMRTSLKAEGSTIFKASLEHHHHHH | not soluble
MNILFAVSECVPFVKSGGLADVAGALPKELKKLGVDVRIILPNYSLIPQKLRDGCTLHKVINVPLGWRNQYCGILKGEQDGITYYLIDNEYYFKRDSLYGHYDDGERFSYFSKAVLECIPHLDFEVDVLHSHDWHTAMVNFLLREKYQDNPLYERIKTVYTIHNLQFQGVFPPEVIYDLLELGDEYFHSEQLEFYGNVNFMKGGIIASDQITAVSPTYKEEIQYEFFGEKLDGLLRKYNDKLSGIVNGIDTSVYNPETDSYIKAQYDAESLYEKSENKRALQRYFGLPEKEDTPIISMVTRLTKQKGLDLVRTVFREIMEEDVQCIILGSGDSEYEQFFEWMAYEYPEKVKVYIGFNEELAHQVYAGSDLFLMPSLFEPCGLGQLIALAYGTIPIVRETGGLNDTVHSYDEETGEGNGFSFTNFNAHDMLHTIHRAIEFYHDKPVWEQLVKQAMTEDYSWEQSALAYKELYKSLME | soluble
VIVAGARTPIGKLMGSLKDFSASELGAIAIKGALEKANVPASLVEYVIMGQVLTAGAGQMPARQAAVAAGIGWDVPALTINKMCLSGIDAIALADQLIRAREFDVVVAGGQESMTKAPHLLMNSRSGYKYGDVTVLDHMAYDGLHDVFTDQPMGALTEQRNDVDMFTRSEQDEYAAASHQKAAAAWKDGVFADEVIPVNIPQRTGDPLQFTEDEGIRANTTAAALAGLKPAFRGDGTITAGSASQISDGAAAVVVMNQEKAQELGLTWLAEIGAHGVVAGPDSTLQSQPANAINKALDREGISVDQLDVVEINEAFAAVALASIRELGLNPQIVNVNGGAIAVGHPLGMSGTRITLHAALQLARRGSGVGVAALCGAGGQGDALILRAG | not soluble
MGSDKIHHHHHHMELEKIRKLYEKVDPSQLTEREKLLTELIFTDRKLKTDKLPNGRYRILQFSGNNFEELENTLKLLLPDFVKSIGEEKIVIEAFSTDSPTNSELFDIFQTLSQDMGEEVTAYVGRFVEKNKLSEVYSEEYKIFESQQTFSEYILSESLNLSENRILQEIRKELLENPEDQKLVEAMYKASSNQTKAAKILYVHRNTLINKIKKYEQKYGLQLSGSDLTLAYNLL | not soluble
MSLADVQQFPESIAELVPKFHVLKLPMVTRFRSITEREVMLFEGPDGWAEFSPFTEYGSVESSRWLQAALEFAGLLPTAEVEPSAVGSAAETVGQSVAVNATLPACATSEVGPILARYGPVGTVKAKVAEHGIDSLPEDWDRLREFRRLFPETTLRLDANAGYALPEALAACTEFAEFDLQYFEQPVAAVEDMARLREQLSARELPVVLAADESIRKAEDPVRVAELGAAEVVIVKVQPLGGIAAARSVLEACGLPAVVSSALESSVGLAAGAQLAATLPRTQRSRELLGEHPACGLGTGRLFAEDVVEPAQSLRPVDGQIPVTRIVPDPQRLETLAVDPGRFDWWEKRLQECWTALLSRRSEGHHHHHH | not soluble
GPHMADLFGDDIEEIPDTDFDFEGNLALFDKAAVFEEIDTYERR | soluble
NGEHTTDIEEQYLEAIRGATQRITLANAYFFPSYRFLRELRNASRRGVKVTLILQGQPDMPFVRVCSRLTYTYLLRDGVVIHEYKQRALHGKVALIDQEWSTVGSSNLDPLSLALNLEANLFIRDKALNQHLQGHLMELAAAHSTQMSLKGAAR | not soluble
MKYQAAIFDMDGLLLDTERVCMRIFQEACEVQNLPFYEDVYLSIIGRNAAGIETIFRKAYGENLDRLHLEWRTRYNAVVKHQAIP | not soluble
MSLKKILIIDQQDFSRIELKNFLDSEYLVIESKNEKEALEQIDHHHPDLVILDMDIIGENSPNLCLKLKRSKGLKNVPLILLFSSEHKEAIVNGLHSGADDYLTKPFNRNDLLSRIEIHLRTQNYYSDLRKNDLLMLLELTETISVTRNPRRILSIIVERLIKTIDVSRCSIIGINDFGELLVLASSDLPENQEIKLDLKKYPEIEKALETQRPVVLQDITNSALMKPVKKHIEALSDNAVFVVPIIKKQNVIGTFFLRTACLQKGGITDRIFKLCQVIASISGNALENAIIFESMETNKKLLEDLSVRDSLTKLYNHQHYHSRLEDEFSRAQRYNLDLSCIFLDIDNFKNINDRYGHLAGDMVLRQIARLISQVIRKSDISARYGGEEFAICLPNTGGVAANELAERLLVMIRELSIQQLKGEHVTVSIGTSTYSNHNVASYSELLHLADDAMYEAKKSGKNRFCCSTAMEGHHHHHH | soluble

— the DeepSol protein solubility set
